# Laboratory results taken from patent US20080020978A1 (Amgen, published 2008).
# Square brackets hold non-standard residues; d marks the D form. 1Nal = N[C@@H](Cc1cccc2ccccc12)C(=O)O; hArg = N=C(N)NCCCC[C@H](N)C(=O)O; Tic = O=C(O)[C@@H]1Cc2ccccc2CN1; Cit = NC(=O)NCCC[C@H](N)C(=O)O; Nva = CCC[C@H](N)C(=O)O; Aib = CC(C)(N)C(=O)O
# Target: T1, CGRP1 receptor (CRLR/RAMP1 complex) of human neuroblastoma SK-N-MC cells (human, UniProt Q16602 23-461; O60894 27-148)
# Test: cell-based or functional assay
# T1 sequence (Q16602 23-461, chain 1 of 2): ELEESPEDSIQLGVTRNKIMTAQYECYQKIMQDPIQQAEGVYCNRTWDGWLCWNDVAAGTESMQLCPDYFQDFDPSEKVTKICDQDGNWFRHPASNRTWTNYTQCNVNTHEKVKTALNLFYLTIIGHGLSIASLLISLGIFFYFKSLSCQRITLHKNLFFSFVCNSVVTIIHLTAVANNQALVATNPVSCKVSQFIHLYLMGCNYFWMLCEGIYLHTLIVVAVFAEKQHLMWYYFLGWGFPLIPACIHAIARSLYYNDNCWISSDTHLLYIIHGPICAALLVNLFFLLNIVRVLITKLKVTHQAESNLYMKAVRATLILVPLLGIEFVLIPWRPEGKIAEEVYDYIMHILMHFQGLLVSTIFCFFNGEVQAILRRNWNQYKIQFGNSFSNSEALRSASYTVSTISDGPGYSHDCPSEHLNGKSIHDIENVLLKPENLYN
# T1 sequence (O60894 27-148, chain 2 of 2): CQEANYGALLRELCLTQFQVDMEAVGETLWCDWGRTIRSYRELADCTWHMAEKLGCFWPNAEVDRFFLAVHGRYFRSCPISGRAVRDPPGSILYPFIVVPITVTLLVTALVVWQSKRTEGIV
PEG-peptide IC50,Peptide IC50,Binder
8.87 nM,–,"Ac-WVTHQLAGLLS[Cit]SGGVV[hArg]KNFVPTDVGPFAF-NH2 (also: PEG-conjugated, in most cases at Lys25) [PEG-peptide of SEQ ID NO 884]"
7.42 nM,–,"Ac-WVTH[Cit]LAGLLSQSGGVV[hArg]KNFVPTDVGPFAF-NH2 (also: PEG-conjugated, in most cases at Lys25) [PEG-peptide of SEQ ID NO 883]"
–,1.42 nM,Ac-WVTHQLAGLLSQSGGVV[hArg]KNFVPTDVGPFAF-NH2 (SMILES CC(=O)N[C@@H](Cc1c[nH]c2ccccc12)C(=O)N[C@H](C(=O)N[C@H](C(=O)N[C@@H](Cc1c[nH]cn1)C(=O)N[C@@H](CCC(N)=O)C(=O)N[C@@H](CC(C)C)C(=O)N[C@@H](C)C(=O)NCC(=O)N[C@@H](CC(C)C)C(=O)N[C@@H](CC(C)C)C(=O)N[C@@H](CO)C(=O)N[C@@H](CCC(N)=O)C(=O)N[C@@H](CO)C(=O)NCC(=O)NCC(=O)N[C@H](C(=O)N[C@H](C(=O)N[C@@H](CCCCNC(=N)N)C(=O)N[C@@H](CCCCN)C(=O)N[C@@H](CC(N)=O)C(=O)N[C@@H](Cc1ccccc1)C(=O)N[C@H](C(=O)N1CCC[C@H]1C(=O)N[C@H](C(=O)N[C@@H](CC(=O)O)C(=O)N[C@H](C(=O)NCC(=O)N1CCC[C@H]1C(=O)N[C@@H](Cc1ccccc1)C(=O)N[C@@H](C)C(=O)N[C@@H](Cc1ccccc1)C(N)=O)C(C)C)[C@@H](C)O)C(C)C)C(C)C)C(C)C)[C@@H](C)O)C(C)C) [SEQ ID NO 885]
–,2.33 nM,Ac-WVTHRLAGLLSRSGGVVRKNFV[Tic]TDVGPFAF-NH2 (SMILES CC(=O)N[C@@H](Cc1c[nH]c2ccccc12)C(=O)N[C@H](C(=O)N[C@H](C(=O)N[C@@H](Cc1c[nH]cn1)C(=O)N[C@@H](CCCNC(=N)N)C(=O)N[C@@H](CC(C)C)C(=O)N[C@@H](C)C(=O)NCC(=O)N[C@@H](CC(C)C)C(=O)N[C@@H](CC(C)C)C(=O)N[C@@H](CO)C(=O)N[C@@H](CCCNC(=N)N)C(=O)N[C@@H](CO)C(=O)NCC(=O)NCC(=O)N[C@H](C(=O)N[C@H](C(=O)N[C@@H](CCCNC(=N)N)C(=O)N[C@@H](CCCCN)C(=O)N[C@@H](CC(N)=O)C(=O)N[C@@H](Cc1ccccc1)C(=O)N[C@H](C(=O)N1Cc2ccccc2C[C@H]1C(=O)N[C@H](C(=O)N[C@@H](CC(=O)O)C(=O)N[C@H](C(=O)NCC(=O)N1CCC[C@H]1C(=O)N[C@@H](Cc1ccccc1)C(=O)N[C@@H](C)C(=O)N[C@@H](Cc1ccccc1)C(N)=O)C(C)C)[C@@H](C)O)C(C)C)C(C)C)C(C)C)[C@@H](C)O)C(C)C) [SEQ ID NO 876]
11 nM,–,"Ac-[1Nal]VTH[Cit]LAGLLS[Cit]SGGVVRKNFVPTDVGPFAF-NH2 (also: PEG-conjugated, in most cases at Lys25) [PEG-peptide of SEQ ID NO 872]"
–,4.2 nM,Ac-WVTHRLAGLLSRSGGVVRKNFV[Aib]TDVGPFAF-NH2 (SMILES CC(=O)N[C@@H](Cc1c[nH]c2ccccc12)C(=O)N[C@H](C(=O)N[C@H](C(=O)N[C@@H](Cc1c[nH]cn1)C(=O)N[C@@H](CCCNC(=N)N)C(=O)N[C@@H](CC(C)C)C(=O)N[C@@H](C)C(=O)NCC(=O)N[C@@H](CC(C)C)C(=O)N[C@@H](CC(C)C)C(=O)N[C@@H](CO)C(=O)N[C@@H](CCCNC(=N)N)C(=O)N[C@@H](CO)C(=O)NCC(=O)NCC(=O)N[C@H](C(=O)N[C@H](C(=O)N[C@@H](CCCNC(=N)N)C(=O)N[C@@H](CCCCN)C(=O)N[C@@H](CC(N)=O)C(=O)N[C@@H](Cc1ccccc1)C(=O)N[C@H](C(=O)NC(C)(C)C(=O)N[C@H](C(=O)N[C@@H](CC(=O)O)C(=O)N[C@H](C(=O)NCC(=O)N1CCC[C@H]1C(=O)N[C@@H](Cc1ccccc1)C(=O)N[C@@H](C)C(=O)N[C@@H](Cc1ccccc1)C(N)=O)C(C)C)[C@@H](C)O)C(C)C)C(C)C)C(C)C)[C@@H](C)O)C(C)C) [SEQ ID NO 879]
–,63 nM,Ac-WVTH[Cit][Nva]AG[Nva][Nva]T[Cit]SGGVVRKNFVPTDVGPFAF-NH2 (SMILES CCC[C@H](NC(=O)CNC(=O)[C@H](C)NC(=O)[C@H](CCC)NC(=O)[C@H](CCCNC(N)=O)NC(=O)[C@H](Cc1c[nH]cn1)NC(=O)[C@@H](NC(=O)[C@@H](NC(=O)[C@H](Cc1c[nH]c2ccccc12)NC(C)=O)C(C)C)[C@@H](C)O)C(=O)N[C@@H](CCC)C(=O)N[C@H](C(=O)N[C@@H](CCCNC(N)=O)C(=O)N[C@@H](CO)C(=O)NCC(=O)NCC(=O)N[C@H](C(=O)N[C@H](C(=O)N[C@@H](CCCNC(=N)N)C(=O)N[C@@H](CCCCN)C(=O)N[C@@H](CC(N)=O)C(=O)N[C@@H](Cc1ccccc1)C(=O)N[C@H](C(=O)N1CCC[C@H]1C(=O)N[C@H](C(=O)N[C@@H](CC(=O)O)C(=O)N[C@H](C(=O)NCC(=O)N1CCC[C@H]1C(=O)N[C@@H](Cc1ccccc1)C(=O)N[C@@H](C)C(=O)N[C@@H](Cc1ccccc1)C(N)=O)C(C)C)[C@@H](C)O)C(C)C)C(C)C)C(C)C)[C@@H](C)O) [SEQ ID NO 873]
–,2.92 nM,WVTHRXAGLLSRXGGVVRKNFVPTDVGPFAF (Ac-WVTHR[NMeLeu]AGLLSR[NMeSer]GGVVRKNFVPTDVGPFAF-NH2) [SEQ ID NO 874]
208 nM,–,WVTHRXAGLLSRXGGVVRKNFVPTDVGPFAF (Ac-WVTHR[NMeLeu]AGLLSR[NMeSer]GGVVRKNFVPTDVGPFAF-NH2; PEG-conjugated (Table 2C: in most cases at Lys^25)) [PEG-peptide of SEQ ID NO 874]
–,1.63 nM,WVTHXLAGLLSXSGGVVRKNFVPTDVGPFAF (Ac-WVTH[NMeArg]LAGLLS[NMeArg]SGGVVRKNFVPTDVGPFAF-NH2) [SEQ ID NO 875]
2.06 nM,–,WVTHXLAGLLSXSGGVVXKNFVPTDVGPFAF (Ac-WVTH[Cit]LAGLLS[hArg]SGGVV[hArg]KNFVPTDVGPFAF-NH2; PEG-conjugated (Table 2C: in most cases at Lys^25)) [PEG-peptide of SEQ ID NO 880]
–,4.96 nM,WVTHXLAGLLSXSGGVVXKNFVPTDVGPFAF (Ac-WVTH[hCit]LAGLLS[hCit]SGGVV[hArg]KNFVPTDVGPFAF-NH2) [SEQ ID NO 886]
–,1.81 nM,WVTHXLAGLLSXSGGVVRKNFVXTDVGPFAF (Ac-WVTH[Cit]LAGLLS[Cit]SGGVVRKNFV[Hyp]TDVGPFAF-NH2) [SEQ ID NO 877]
12.4 nM,–,"Ac-WVTHQLAGLLSQSGGVV[hArg]KNFVPTDVGPFAF-NH2 (also: PEG-conjugated, in most cases at Lys25) [PEG-peptide of SEQ ID NO 885]"

# Target: T1, CGRP1 receptor (CRLR/RAMP1 complex) of …
# Test: cell-based or functional assay
# Remark: another data set of the same source
row,IC50,Binder
1,33.4 nM,Ac-WVTHRLAGLLSRSGGVVRC(40 kDa branched MeO‑PEG2)NFVPTDVGPFAF-NH2 [SEQ ID NO 769]
2,0.91 nM,Ac-WVTHRLAGLLSRSGGVVRCNFVPTDVGPFAF-NH2 [SEQ ID NO 764]
3,23.8 nM,Ac-WVTHRLAGLLSRSGGVVRC(20 kDa branched MeO‑PEG2)NFVPTDVGPFAF-NH2 [SEQ ID NO 768]
4,7.86 nM,Ac-WVTHRLAGLLSRSGGVVRC(30 kDa MeO‑PEG)NFVPTDVGPFAF-NH2 [SEQ ID NO 767]
5,2.52 nM,Ac-WVTHRLAGLLSRSGGVVRC(5 kDa MeO‑PEG)NFVPTDVGPFAF-NH2 [SEQ ID NO 765]
